Results published in PMC5986058.

Substrate: C[C@H](O)[C@H](N)C(=O)O
Assay: purified protein
Format: biochemical, Aeromonas jandaei
Details: 50 mM NaPi pH 8, 25 °C, 50 μM PLP

B1: LTAaj (L-threonine aldolase from Aeromonas jandaei; L-allo-threonine aldolase) (Aeromonas jandaei) (protein)
chain: MRYIDLRSDTVTQPTDAMRQCMLHAEVGDDVYGEDPGVNALEAYGADLLGKEAALFVPSGTMSNLLAVMSHCQRGEGAVLGSAAHIYRYEAQGSAVLGSVALQPVPMQADGSLALADVRAAIAPDDVHFTPTRLVCLENTHNGKVLPLPYLREMRELVDEHGLQLHLDGARLFNAVVASGHTVRELVAPFDSVSICLSKGLGAPVGSLLVGSHAFIARARRLRKMVGGGMRQAGILAQAGLFALQQHVVRLADDHRRARQLAEGLAALPGIRLDLAQVQTNMVFLQLTSGESAPLLAFMKARGILFSGYGELRLVTHLQIHDDDIEEVIDAFTEYLGA
notes: C-terminal His-tag, expressed in E. coli BL21(DE3), Ni-NTA purified, homotetramer, PLP-dependent
**Q.** B1 was tested. Which Km did it give?
**A.** Its Km is 500 µM.

**Q.** And the kcat?
**A.** Its kcat is 8.67 s⁻¹.

**Q.** What about the kcat/Km of the same protein?
**A.** Its kcat/Km is 17000 M⁻¹ s⁻¹.
